{"source": "paper PMC3846833", "molecular_target": "recombinant myostatin (R&D Systems) (UniProt O14793)", "sequence (O14793 267-375)": "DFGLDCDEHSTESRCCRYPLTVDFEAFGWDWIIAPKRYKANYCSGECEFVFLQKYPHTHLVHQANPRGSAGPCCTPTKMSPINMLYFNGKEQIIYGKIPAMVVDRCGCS", "assay": "SPR; Biacore 3000, CM5 chip, about 2000 RU of ligand (ActRIIB-Fc or myostatin) amine-coupled by EDC/NHS; analyte 6.25-100 nM in HBS-EP (0.01 M HEPES pH 7.4, 0.15 M NaCl, 3 mM EDTA, 0.005% P20); 21°C, 30 µL/min; association 180 s, dissociation 300 s"}
{"substance": "recombinant putative mature sheep myostatin splice variant (rMSV, aa 275-321) (domain or fragment)", "values": [{"measurement": "Kd", "value": 0.0979, "unit": "nM"}, {"measurement": "koff", "value": "4.32e-06", "unit": "s⁻¹"}, {"measurement": "kon", "value": 44100, "unit": "M⁻¹ s⁻¹"}]}
